For 1 substance, Kd, koff and kon results are on record in paper PMC4810480.

In this experiment the target is human CD26 (residues 39 to 766) (human) (UniProt P27487). Kind of experiment: SPR.
UniProt P27487, sequence (P27487 39-766): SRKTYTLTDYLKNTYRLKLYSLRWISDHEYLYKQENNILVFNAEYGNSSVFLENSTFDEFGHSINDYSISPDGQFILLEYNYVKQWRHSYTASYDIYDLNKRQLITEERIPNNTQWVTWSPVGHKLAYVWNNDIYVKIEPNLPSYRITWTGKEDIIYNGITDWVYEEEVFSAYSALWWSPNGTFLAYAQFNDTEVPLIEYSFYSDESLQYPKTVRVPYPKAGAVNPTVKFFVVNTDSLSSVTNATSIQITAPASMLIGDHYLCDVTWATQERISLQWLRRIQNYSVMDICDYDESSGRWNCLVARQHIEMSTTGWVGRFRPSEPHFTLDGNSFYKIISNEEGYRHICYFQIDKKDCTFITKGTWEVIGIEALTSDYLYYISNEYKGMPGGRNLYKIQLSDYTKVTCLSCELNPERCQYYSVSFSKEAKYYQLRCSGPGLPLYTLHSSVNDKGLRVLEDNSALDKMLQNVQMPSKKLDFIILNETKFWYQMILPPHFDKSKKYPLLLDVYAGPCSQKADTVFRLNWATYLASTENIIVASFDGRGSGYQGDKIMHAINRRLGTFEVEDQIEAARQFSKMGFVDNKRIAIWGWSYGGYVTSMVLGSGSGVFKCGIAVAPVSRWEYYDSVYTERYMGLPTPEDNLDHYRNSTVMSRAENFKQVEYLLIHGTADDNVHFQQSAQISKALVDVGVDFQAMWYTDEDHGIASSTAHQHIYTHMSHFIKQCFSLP

For the substance “MERS-CoV spike receptor-binding domain (RBD), wild type (from UniProt K9N5Q8 367-606) (domain or fragment)”, the Kd was found to be 64.5 nM, the koff was 0.000936 s⁻¹ and the kon is 14500 M⁻¹ s⁻¹.
